Experimental data published in US20100189713A1 (Biogen, published 2010).

Experiments:
[1] = target: T1, plexin-A2A396E expressed in COS7 cells (mouse, UniProt P70207 35-1894); assay: AP-fusion binding assay on transfected COS7 cells
T1 construct: whole, on cells; Same point mutation as in NMF454 mice, made by site-directed mutagenesis; also called mutated plexin-A2A396E; NMF454 mutation
Description: This plexin-A2A396E cDNA was then expressed in COS7 cells, and its ability to bind Sema6A-AP was tested using the same method shown in Example 8. See Suto et al. Neuron 53: 5354 (2007).

[2] = target: T2, full-length mouse plexin-A2 protein, N-terminal myc-tag, stably expressed on L cells (mouse, UniProt P70207 35-1894); assay: AP-fusion binding to L cells stably expressing plexin-A2, colorimetric AP activity of cell lysates
T2 construct: whole, on cells; also called plexin-A2 expressing L cells
T2 sequence (P70207 other isoform, or with tags, fused parts or gaps): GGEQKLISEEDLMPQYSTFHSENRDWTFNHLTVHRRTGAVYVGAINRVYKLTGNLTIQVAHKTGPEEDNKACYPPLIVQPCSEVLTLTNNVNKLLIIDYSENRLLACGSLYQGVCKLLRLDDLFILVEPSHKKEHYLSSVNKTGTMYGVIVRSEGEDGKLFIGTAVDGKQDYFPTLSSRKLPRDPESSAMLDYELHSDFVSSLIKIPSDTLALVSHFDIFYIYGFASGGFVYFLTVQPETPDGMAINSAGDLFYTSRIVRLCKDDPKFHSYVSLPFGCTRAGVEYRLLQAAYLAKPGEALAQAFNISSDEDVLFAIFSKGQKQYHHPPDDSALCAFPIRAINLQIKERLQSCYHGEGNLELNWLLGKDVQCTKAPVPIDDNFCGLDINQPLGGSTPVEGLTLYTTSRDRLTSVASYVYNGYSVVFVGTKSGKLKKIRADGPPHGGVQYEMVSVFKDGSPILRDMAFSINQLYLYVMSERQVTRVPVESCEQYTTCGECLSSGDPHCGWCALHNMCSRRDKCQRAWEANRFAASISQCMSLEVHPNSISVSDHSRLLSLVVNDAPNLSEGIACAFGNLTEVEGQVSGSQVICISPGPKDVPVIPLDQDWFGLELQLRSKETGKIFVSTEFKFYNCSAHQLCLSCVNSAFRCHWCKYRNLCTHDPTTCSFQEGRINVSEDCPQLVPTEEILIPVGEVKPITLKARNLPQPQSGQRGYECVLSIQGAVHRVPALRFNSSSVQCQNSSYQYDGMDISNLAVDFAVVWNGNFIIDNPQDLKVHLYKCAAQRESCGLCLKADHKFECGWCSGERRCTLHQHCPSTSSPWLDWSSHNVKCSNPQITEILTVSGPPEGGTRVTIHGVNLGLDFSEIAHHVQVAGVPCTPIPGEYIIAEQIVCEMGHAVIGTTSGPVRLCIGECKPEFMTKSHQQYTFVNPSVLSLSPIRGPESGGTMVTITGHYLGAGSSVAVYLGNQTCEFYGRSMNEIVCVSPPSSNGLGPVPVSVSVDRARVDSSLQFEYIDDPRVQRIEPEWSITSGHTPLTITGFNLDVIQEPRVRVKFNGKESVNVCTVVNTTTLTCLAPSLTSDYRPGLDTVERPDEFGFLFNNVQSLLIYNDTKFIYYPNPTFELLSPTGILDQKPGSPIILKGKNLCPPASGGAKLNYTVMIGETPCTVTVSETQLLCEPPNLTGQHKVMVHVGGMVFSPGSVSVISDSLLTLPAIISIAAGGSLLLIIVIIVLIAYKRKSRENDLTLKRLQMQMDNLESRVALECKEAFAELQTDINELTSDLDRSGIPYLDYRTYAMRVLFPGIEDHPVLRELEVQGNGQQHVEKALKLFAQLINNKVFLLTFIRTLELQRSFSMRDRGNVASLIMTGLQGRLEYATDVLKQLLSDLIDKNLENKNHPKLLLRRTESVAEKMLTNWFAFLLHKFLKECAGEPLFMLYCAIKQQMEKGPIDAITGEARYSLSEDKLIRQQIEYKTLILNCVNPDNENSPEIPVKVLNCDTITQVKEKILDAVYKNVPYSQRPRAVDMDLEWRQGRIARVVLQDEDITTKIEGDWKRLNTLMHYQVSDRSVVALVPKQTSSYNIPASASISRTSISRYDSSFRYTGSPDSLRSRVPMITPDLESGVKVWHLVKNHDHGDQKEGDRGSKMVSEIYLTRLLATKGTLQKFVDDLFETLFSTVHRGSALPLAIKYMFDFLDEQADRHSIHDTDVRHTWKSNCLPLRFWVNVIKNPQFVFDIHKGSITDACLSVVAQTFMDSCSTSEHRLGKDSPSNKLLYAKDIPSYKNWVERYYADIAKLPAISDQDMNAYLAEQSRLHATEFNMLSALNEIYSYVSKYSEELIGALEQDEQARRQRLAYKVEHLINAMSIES
Description: In order to show the binding of Sema6A to Plexin-A2, L-cells that stably express the full-length mouse plexin-A2 proteins were incubated with 250 μl of HBSS with 0.5 mg/ml BSA, 0.1% NaN₃, and 20 mM HEPES, pH 7.0 (HBHA solution) containing 1% FBS and the AP-Sema6Aect-Fc recombinant proteins (the culture supernatant) for 1 h on ice as described in Flanagan and Leder, Cell 63: 185-194 (1990). After removal of the HBHA solution, cells were treated with 250 μl of 10 mM Tris-HCl, pH 8.0, supplemented with 0.1% Triton X-100 to dissolve the recombinant proteins bound to the cell surface. The cell lysates were subjected to colorimetric analysis to measure AP activity as described in Flanagan and Leder, Cell 63: 185-194 (1990) and Flanagan et al., Methods Enzymol 327: 17-35 (2000).
It was shown that the Fc-dimerized recombinant AP-tagged ectodomain of Sema6A bound with a high affinity to plexin-A2 expressing L cells. […] 25: 3628-3637 (2005).

T1 sequence (P70207 35-1894 A396E): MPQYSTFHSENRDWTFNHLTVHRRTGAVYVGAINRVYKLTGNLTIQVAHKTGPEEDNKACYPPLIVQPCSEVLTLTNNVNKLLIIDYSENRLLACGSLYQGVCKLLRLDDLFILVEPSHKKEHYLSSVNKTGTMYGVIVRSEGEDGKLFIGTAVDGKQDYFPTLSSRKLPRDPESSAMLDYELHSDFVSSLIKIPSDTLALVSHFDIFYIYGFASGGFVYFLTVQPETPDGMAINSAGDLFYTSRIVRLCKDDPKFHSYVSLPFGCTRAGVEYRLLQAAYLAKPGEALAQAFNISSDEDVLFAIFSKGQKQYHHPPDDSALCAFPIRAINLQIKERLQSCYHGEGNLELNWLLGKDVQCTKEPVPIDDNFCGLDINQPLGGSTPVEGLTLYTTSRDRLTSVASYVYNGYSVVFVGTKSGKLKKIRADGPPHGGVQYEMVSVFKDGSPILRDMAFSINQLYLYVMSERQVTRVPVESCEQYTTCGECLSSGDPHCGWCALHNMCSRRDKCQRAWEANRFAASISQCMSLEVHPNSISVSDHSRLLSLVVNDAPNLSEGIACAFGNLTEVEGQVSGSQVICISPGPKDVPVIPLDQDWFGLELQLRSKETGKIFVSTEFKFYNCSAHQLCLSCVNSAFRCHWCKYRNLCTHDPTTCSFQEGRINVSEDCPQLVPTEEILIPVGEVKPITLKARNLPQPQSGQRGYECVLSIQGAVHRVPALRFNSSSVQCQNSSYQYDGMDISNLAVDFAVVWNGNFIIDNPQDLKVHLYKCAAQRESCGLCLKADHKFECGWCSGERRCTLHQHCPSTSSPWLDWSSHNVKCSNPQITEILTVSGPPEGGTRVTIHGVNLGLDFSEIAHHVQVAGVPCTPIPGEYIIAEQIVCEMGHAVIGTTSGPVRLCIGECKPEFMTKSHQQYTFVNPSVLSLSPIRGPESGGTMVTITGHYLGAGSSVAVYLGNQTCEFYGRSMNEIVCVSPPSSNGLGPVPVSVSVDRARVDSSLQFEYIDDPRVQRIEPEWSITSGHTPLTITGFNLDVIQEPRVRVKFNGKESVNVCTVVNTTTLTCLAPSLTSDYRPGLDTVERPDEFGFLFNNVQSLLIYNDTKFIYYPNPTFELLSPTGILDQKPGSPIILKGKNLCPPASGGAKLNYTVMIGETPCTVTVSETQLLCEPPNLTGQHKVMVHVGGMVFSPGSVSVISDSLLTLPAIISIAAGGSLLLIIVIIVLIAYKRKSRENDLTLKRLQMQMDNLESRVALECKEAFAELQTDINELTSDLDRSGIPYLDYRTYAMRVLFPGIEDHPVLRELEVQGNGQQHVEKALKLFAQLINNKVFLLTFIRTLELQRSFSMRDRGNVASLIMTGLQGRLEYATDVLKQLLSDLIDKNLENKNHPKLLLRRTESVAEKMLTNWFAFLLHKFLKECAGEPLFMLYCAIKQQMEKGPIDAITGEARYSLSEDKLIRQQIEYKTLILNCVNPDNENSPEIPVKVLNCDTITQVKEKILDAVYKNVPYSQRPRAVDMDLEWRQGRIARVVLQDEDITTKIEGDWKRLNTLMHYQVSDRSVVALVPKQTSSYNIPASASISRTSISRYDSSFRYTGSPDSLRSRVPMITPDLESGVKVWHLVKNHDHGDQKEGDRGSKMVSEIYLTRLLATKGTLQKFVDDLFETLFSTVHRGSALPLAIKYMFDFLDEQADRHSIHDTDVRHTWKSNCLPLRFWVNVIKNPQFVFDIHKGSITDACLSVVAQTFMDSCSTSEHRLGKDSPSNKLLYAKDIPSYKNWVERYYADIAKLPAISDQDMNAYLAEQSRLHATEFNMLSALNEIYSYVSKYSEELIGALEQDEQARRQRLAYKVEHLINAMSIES

Row | binding result [1] | Kd [2] | Binder
1 | no binding | – | Sema6A-AP (ligand, UniProt O35464 19-649, looked up, Printed only as 'Sema6A-AP'; Order of the pieces follows the printed label only; not shown: alkaline phosphatase (AP) tag) GFPEDSEPISISHGNYTKQYPVFVGHKPGRNTTQRHRLDIQMIMIMNRTLYVAARDHIYTVDIDTSHTEEIYCSKKLTWKSRQADVDTCRMKGKHKDECHNFIKVLLKKNDDTLFVCGTNAFNPSCRNYRVDTLETFGDEFSGMARCPYDAKHANIALFADGKLYSATVTDFLAIDAVIYRSLGDSPTLRTVKHDSKWLKEPYFVQAVDYGDYIYFFFREIAVEYNTMGKVVFPRVAQVCKNDMGGSQRVLEKQWTSFLKARLNCSVPGDSHFYFNILQAVTDVIRINGRDVVLATFSTPYNSIPGSAVCAYDMLDIANVFTGRFKEQKSPDSTWTPVPDERVPKPRPGCCAGSSSLEKYATSNEFPDDTLNFIKTHPLMDEAVPSIINRPWFLRTMVRYRLTKIAVDNAAGPYQNHTVVFLGSEKGIILKFLARIGSSGFLNGSLFLEEMNVYNPEKCSYDGVEDKRIMGMQLDRASGSLYVAFSTCVIKVPLGRCERHGKCKKTCIASRDPYCGWVRESGSCAHLSPLSRLTFEQDIERGNTDGLGDCHNSFVALNGHASSLYPSTTTSDSASRDGYESRGGMLDWNDLLEAPGSTDPLGAVSSHNHQDKKGVIRESYLKSNDQLVPVT
2 | – | 3.21 nM | recombinant Fc-dimerized AP-tagged Sema6A ectodomain (AP-Sema6Aect-Fc) (Fc fusion, mouse, UniProt O35464 18-648, looked up, range 18-648; Used as culture supernatant of transfected HEK293T cells; also called Fc-dimerized recombinant AP-tagged ectodomain of Sema6A; not shown: alkaline phosphatase (AP) tag from the Aptag-4 vector; Fc from the pEF-Fc expression vector) AGFPEDSEPISISHGNYTKQYPVFVGHKPGRNTTQRHRLDIQMIMIMNRTLYVAARDHIYTVDIDTSHTEEIYCSKKLTWKSRQADVDTCRMKGKHKDECHNFIKVLLKKNDDTLFVCGTNAFNPSCRNYRVDTLETFGDEFSGMARCPYDAKHANIALFADGKLYSATVTDFLAIDAVIYRSLGDSPTLRTVKHDSKWLKEPYFVQAVDYGDYIYFFFREIAVEYNTMGKVVFPRVAQVCKNDMGGSQRVLEKQWTSFLKARLNCSVPGDSHFYFNILQAVTDVIRINGRDVVLATFSTPYNSIPGSAVCAYDMLDIANVFTGRFKEQKSPDSTWTPVPDERVPKPRPGCCAGSSSLEKYATSNEFPDDTLNFIKTHPLMDEAVPSIINRPWFLRTMVRYRLTKIAVDNAAGPYQNHTVVFLGSEKGIILKFLARIGSSGFLNGSLFLEEMNVYNPEKCSYDGVEDKRIMGMQLDRASGSLYVAFSTCVIKVPLGRCERHGKCKKTCIASRDPYCGWVRESGSCAHLSPLSRLTFEQDIERGNTDGLGDCHNSFVALNGHASSLYPSTTTSDSASRDGYESRGGMLDWNDLLEAPGSTDPLGAVSSHNHQDKKGVIRESYLKSNDQLVPV
